Assay results taken from the DeepSol protein solubility set.

Assay: soluble on expression in E. coli; label from the status in PepcDB or PDB records
With “GPGSMSEKEGKVIPETNGMKRPRFDPVKLGLPEEFTLTDYTRLKGCSCKVPQPELLALLQSVSTTPGRRDVGMDCSIVKLQHKDETGKPLYMVSTTDFFFPSVEDPYLQGQIGAANVLSDLYSTGIDRCDTVLMLLAASTDMDKTEREVCTQEMMKGFVDHVRLAGSDVTGGQTVMNPWPLIGGIATSVVAESQMIRPTGLQPGDILVLTKPLGCQIAVNLKQWLRRPSPIFEEQIQGKMDSEEIEELYNAAADGMKRLNRMAAALMHSHGAHGATDVTGFGILGHAKNLGSAQKADVCLVLDSLPMYRGAVKASKLMGDKYRLFEGYAAETSGGLLVAFGTREEAEGYIRELYETDGEPAWVVGRVVRREGSAPYALLQKDYKIIEVGAKVNDKII” the “soluble on expression in E. coli” value was “soluble”. For “GPGSMSESCSGDYYHFVTQRSQAAEITLPIPSFCKPLAASVQPFGEGKAGLLASFFDPEQHAWVVRQLPVQESWSHQPPPSLTVRVATLVDPANLYELRVSLSSVLDGVDNDDLCALQRRSQIYGLVVEEHLADKSGAALRSAGAEGRLPQLREAVTLAAPVDVMNGFVLTGGGFLSDFPVLRDGPALPRSMNTVYDDILAGEDFCGPPMPAGGARFAGTDSAAHTSGGRGSDSPVNSNEPREYTAWSVTAAANAGLACISMGLRRRSPIEWPQLQSESQHTHSASPRERTGPGTSLAISPGPLRAKPPPSVVSDTGALAVYQCTGVPVSGLRPNEHGDGGNGAHGVVSAYSSAAVSTMAARPLLETLTLRGEVDVKLSRRDGEEWGISLPPPHGSLKFSMGPNRELVAAARRYFYCE”, the “soluble on expression in E. coli” value was “not soluble”. With “GPGSMSGIKIEEVISTTKKERVAAHSHVKGLGLNPDGTTKHIADGFVGQEKAREAAGIAVELIRSKKMAGRALLFAGPPGTGKTALALGIAKELGPKVPFCPMVGSEVYSAEVKKTEVLMENFRRAIGLRIKENKEVYEGEVTELRAEETDNPLGGYGKSISHVIITLKSQKGSKLLKLDAAIYESLEKEKVSVGDVIYIEASSGAVKRVGRSDAYIGDHDLEADEYVPIPKGDVHKKKEVIQDVTLHDLDMANAKPSQGQDALSIVSSMMRHKKTEVTEKLRQEINKVVNKYIDQGVAELVPGVLFIDEVHMLDIECFTYLNKALESTLAPVVIFATNRGSCRIRGTEIRAPHGMPTDLLDRLLIIRTMNYDVSEITSIVEIRAHVEGVKISEAALTKLGIIGESTSLRFVVQLLTPALIIAETNGREMLEEEDVDLVAELFKDGKASARQLQDHAEEYVYQ” the “soluble on expression in E. coli” value was “soluble”. In the case of “GPGSMSKYANPDYWEERYRSNDTTFDWYLTFDNLEPVLRPMLQPAEQIHVLVVGCGNSRLSPCMYEHLNVRKITNVDVSPTVISQMTRRYKGMDEMRWICCDLIHTAPDKLLTLLCPEDALFDFVIDKGLVDATLGGSNSFHNLYTLTKNLARVMKNGGRFLSVSYGAPETRIDHFRRRKLNFDVEHRTIEKSVFASGAAPTGSYHVYIMTKLGERQAVTAGAADDGALSGDTDDDDDFYDRFMTKANTTSADAARFD”, the “soluble on expression in E. coli” value is reported as “soluble”. In the case of “GPGSMSLASPSSLPPIALATQRLRTFAAQEEQAHGLTTSTALEEWATQSFEAETERINRELVQRRSQASVTFLPALYMRGRDPAADETTRLLHSTCKAFELDLRFKEIEKLDEMHAHLWTLLSAGDRTSISMEAYEQLLHDFNEWAAEHYGAQLLPPPSTVWDVSEDEDECILCRREVKEDDHEKSGGGNSSPSMSPLRPPVSLARPLSASTPPVLAATKAAPNDAPFTSGTRGASWDAVLQHVKRYRDQQRSDTSASASSFMRSHAHFEHLLRLAEDQPALGNVLYLCSVPPPRPDVQLFLSCPRNAERAVEIAAIYQTFAKQVSLVKCEAELIMWDSNNDGRLSEDEVENYVRDLAPRIAALQAMSKDMLPFYCCTVSRRLFWDLDPGNRGVLRIHSLLHSGIMDEWVSLQLMTEDDTQNWFGALVTQQLYNKFVLLDTRNTGTLNVENLRGYKKGLPTVLDDGLPPDVSPLCSLFIDRYFETNTLMTRSEMDYRKFVDFVIAVELLPQCSRPYFFWNILDMEGTGVLTPMIVNQFFRETHAKLVAAGLDVPSRETVVQEVFDLIEKAESLLITRDEFVRSPQAGLFVALLIDCLSFWTYENREQR”, the “soluble on expression in E. coli” value is reported as “not soluble”. With “GPGSMSRTQTSSKSVPKNIAVYCRVRPPVPNEKGHTFQNISYDDSDSRAIAVARKSGTKALEKTYLFNRVFRPTATQKDVYETFAKGAVDAAFDGQHGVLFVYGQTGSGKTFTISNDEPNNEGVLQRSMRDIWNRIASDTANDYSCSVSYVQLYNEILTDLLDDAKGKVRIQMGSEGRGDVVMVSDSTGMAIEREVKDYKSTMACFQVGLARKEMASTSMNSTSSRSHTIFTLNIVKAKKVVAVTVGTEAEGPTIALEGRLVLCDLAGSERVSKTHAEGKTLDEATHINRSLLTLGKVVTALTDNAQHAPFRESKLTRILQYSLMGNGNTSIIVNISPSDDNTEESLSAILFGQRASQIKQDAKRHEVLDYKALYMQLMAELDNKNDKTLEEALEEERGVYEERISALDEEMKLLSDENAMLRNENKQLRQYVPADRLKLIDETPSSGVSGANGEVVSGGWAKVNQDLRKLVQQRDERLKVISDERVRLALVVAEEKRKCFQLAQKMRSFAMRYKMEREQSTQRQEELCTELATLKGTDYLSAVGSFDATASPGSPNYPRENEEFNDAESAQAQIRALRAERMELMVYQAKAANAIRKLVKERDAAQRKVA” the “soluble on expression in E. coli” value was “soluble”. With “GPGSMTAAVDLEGVALHGHMKGVTMLKFNRDGDLLFSSAKDTNCSACCWQVKTGKLFGSYTTVGQVEGRTYDAAMVALDVNRESTLLATASAGEEVLLWSVESGALLGSVSRSLSSGASVGFSHDDTLMMVATKGRSSTNSAIQVYNVPFTVPKAGEDIAPVKTPFTTFSTFETPDTITWAAWGPTNETIYYSEGGYMNILDVEANKVIRSRQIHEDENEVINRFSWDPNYLALATASTDKTSHLIDFRDLATIQVYRSDVPVNDVSISPNADHVILGGGMDAASVTTQGGQSIFEVKFFHKVHGHQLGQLRCHFGTINAMSFHPDGRGFASASYDGLIKMYRFGDSYDSTPGAQPLWTL” the “soluble on expression in E. coli” value was “not soluble”. With “GPGSMTAVSNAAAVQATSGANGGSAVVTFFTTTYSKPMPEQSFSVPLNVLPDGLNQLVQNVLGVEGQNFDFLYKDEYIGTTLFRFLQRRGISCEELLNIEYTPALQAKEGNLLPHDDWVSSVRAPYRNNAELLLTGSYDHCVRLWDGDSCLALGSFHREAVKEVALHPVAPASSKTGRKRTRLDGDFMFASASKDGSVAAWKLDSTSSHMQLLGSIQAHTDGVDSVAIAPGDGRLVATASWDTTVKVFNWEQMMEGDTVPSKKAPLVTFTDHSRPVLCSRFSAAHGAARLYSAGYDGHIKCLDTEAAQLQSQFKGDHPINRISVKPAGSSPAADLLLSACTDNRARLFDTRQKDVVKTFSGSCQWLYSVVWLWDAQEGDAEHSGGSLFAVASEDATVRVYDLRCTNTALLTLDAMHTDGVLDVTYVGQSIIASGGKDNKTRSFALSKEGLLS” the “soluble on expression in E. coli” value was “not soluble”. For “GPGSTGASLGMMWKDKLNAMTKEEFTRYKRAGVMETDRKEARDYLKRGDGKTGLSVSRGTAKLAWMEERGYVELTGRVVDLGCGRGGWSYYAASRPHVMDVRAYTLGVGGHEVPRITESYGWNIVKFKSRVDIHTLPVERTDVIMCDVGESSPKWSVESERTIKILELLEKWKVKNPSADFVVKVLCPYSVEVMERLSVMQRKWGGGLVRNPYSRNSTHEMYFTSRAGGNIIGAVTACTERLLGRMARRDGPVVVPELNLGTGTR”, the “soluble on expression in E. coli” value was “soluble”. In the case of “GPHMDAATLTYDTLRFAEFEDFPETSEPVWILGRKYSIFTEKDEILSDVASRLWFTYRKNFPAIGGTGPTSDTGWGCMLRCGQMIFAQALVCRHLGRDWRWTQRKRQPDSYFSVLNAFIDRKDSYYSIHQIAQMGVGEGKSIGQWYGPNTVAQVLKKLAVFDTWSSLAVHIAMDNTVVMEEIRRLCRTSVPCAGATAFPADSDRHCNGFPAGAEVTNRPSPWRPLVLLIPLRLGLTDINEAYVETLKHCFMMPQSLGVIGGKPNSAHYFIGYVGEELIYLDPHTTQPAVEPTDGCFIPDESFHCQHPPCRMSIAELDPSIAVGFFCKTEDDFNDWCQQVKKLSLLGGALPMFELVEQQPSHLACPDVLNLSLDSSDVERLERFFDSEDEDFEILSL”, the “soluble on expression in E. coli” value is reported as “soluble”. For “GPLGSCSSPQVEIPTTYSPEKIAQLQVYVNPIAVARDGMEKRLQGLIADQNWVDTQTYIHGPLGQLRRDMLGLASSLLPKDQDKAKTLAKEVFGHLERLDAAAKDRNGSQAKIQYQEALADFDSFLNLLPQAS”, the “soluble on expression in E. coli” value was “soluble”. With “GPLGSKEQGVVRKAGWLFFKPLVTLQKERKLELVARRKWKQYWVTLKGCTLLFYETYGKNSTEQNSAPRCALFAEDSIVQSVPEHPKKEHVFCLSNSCGDVYLFQATSQTDLENWVTAIHSACASLFAKKHGKEDTVRLLKSQTRSLLQKIDMDSKMKKMAELQLSVVSDPKNRKAIENQIRQWEQNLEKFHMDLFRMRCYLASLQGGELPNPKSLLAATSRPSKLALGRLGVLSVSSFHALVCSRDDSTLRKRTLSLTQRGK” the “soluble on expression in E. coli” value was “soluble”. With “GPLGSMDQSVAIQETLVEGEYCVIAVQGVLCKGDSRQSRLLGLVRYRLENDAQEHALFLYTHRRMAITGDDVSLDQIVPLSKDFMLEEVSPDGELYILGSDVTVQLNTAELKLVFQLPFGSHTRTFLQEVARACPGFDPETRDPEFEWLSRHTCAEPDAES” the “soluble on expression in E. coli” value was “soluble”. With “GPLGSMDSPPEGYRRNVGICLMNNDKKIFAASRLDIPDAWQMPQGGIDEGEDPRNAAIRELREETGVTSAEVIAEVPYWLTYDFPPKVREKLNIQWGSDWKGQAQKWFLFKFTGQDQEINLLGDGSEKPEFGEWSWVTPEQLIDLTVEFKKPVYKEVLSVFAPHL” the “soluble on expression in E. coli” value was “soluble”. With “GPQMLSANERLKNNFNILYNQIRQYPAYYFKVASNVPTYSDICQSFSVMYQGFQIVNHSGDVFIHACRENPQSKGDFVGDKFHISIAREQVPLAFQILSGLLFSEDSPIDKWKITDMNRVSQQSRVGIGAQFTLYVKSDQECSQYSALLLHKIRQFIMCLESNLLRSKIAPGEYPASDVRPEDWKYVSYRNELRSDRDGSERQEQMLREEPFYRLMIE” the “soluble on expression in E. coli” value was “soluble”. For “GQLNVEHRQFLSQGLQGQSKGQSSVVVQPELYWDFQSGESSFTFTPFFRVDSLDDERTHCDIREALFLTYWDDYELRVGISKVFWGVTESAHLVDVVNQTDAVEAVDGEDKLGQPMVHFTAIKDWGAFHAMVLPYFRERTFAGQDGRLRTEPVISDNAIYESSREEKHIDVAFRYSKMLGDWDIGLSYLYGTNRDPYFRFEQGELKPYYALMSHFGIDVQGIVGDWLWKLESVYRDSYDHHVGVVTGFE”, the “soluble on expression in E. coli” value was “not soluble”. For “GQSLPSVSKEIRELSNRTEQQTSLSDRKESEAFALETVRMISDRTLYLFRLAEGRSWEADVRGRSWASRVLPIVHRLKHGGIPWKQYLSSDSLCMEARLYGKYDSVTGAYRRGVVSFRSDIPQRNKVDDLTALALLGENVYAEEFDFGNRQIFPNPIRREAEAFYTYRLDSLYEKDGITYRRIAFRGLSGLNHGTVTIDATHGQLAILEMRVMMKGVITESYRVELGEVEPGLFLPIGLSVVIDRNRLWASLHNGYSASISYPGEQLDKTVLPVYTPTDSSRYRLPDELPVAPVWAVRSSFGREDSSTYWKNVVVGRDHTLHQHVPWHRALAWGHKYRIGERWRLGNEGLVWALFYYNYADHLWLGQSLTAIYDMAPGIRWEIKPGLYYVTKRRKAVWTLDSKLYYSPPQRGLLQLSAGHRSFDLYSTRERIDQLTDLMMELLNGQGPTTRYDDKFVRLTNSIDLLPKLNVETSVMLAERNPLPHGET”, the “soluble on expression in E. coli” value was “not soluble”. With “GRLDHNVEAAMGDETKYARINANRSVSNDYQDGNGDSVHSSWERWNADLALGWKPTQDSWIELKGGKGNGEAAYAGRTMDGTQFQRESLGLHAEQKNLTDVIKKVEAQVDYSYNDHIMDNYKMRTPPMMPMAMEVTRRTLNARAAITTEWDRLNVISGVDSQRNKHAGNMYMRDANPIPPLDGDLRFESYGAFSEWTYRLNP” the “soluble on expression in E. coli” value was “not soluble”.
